Data on 1 molecule can be found in patent US20220332804A1 (CSL INNOVATION, published 2022).

Common to all, as to assay: SPR; KD relative to WT C2;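 note: biacore SPR at 37 °C, anti-C2 mAbs captured on an anti-human IgG chip, alanine or serine C2 surface mutants tested, KD from 1:1 fit compared with wild-type C2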
Assay [1] addresses T1, human C2 A470S (human, UniProt P06681 21-752).
T1 sequence: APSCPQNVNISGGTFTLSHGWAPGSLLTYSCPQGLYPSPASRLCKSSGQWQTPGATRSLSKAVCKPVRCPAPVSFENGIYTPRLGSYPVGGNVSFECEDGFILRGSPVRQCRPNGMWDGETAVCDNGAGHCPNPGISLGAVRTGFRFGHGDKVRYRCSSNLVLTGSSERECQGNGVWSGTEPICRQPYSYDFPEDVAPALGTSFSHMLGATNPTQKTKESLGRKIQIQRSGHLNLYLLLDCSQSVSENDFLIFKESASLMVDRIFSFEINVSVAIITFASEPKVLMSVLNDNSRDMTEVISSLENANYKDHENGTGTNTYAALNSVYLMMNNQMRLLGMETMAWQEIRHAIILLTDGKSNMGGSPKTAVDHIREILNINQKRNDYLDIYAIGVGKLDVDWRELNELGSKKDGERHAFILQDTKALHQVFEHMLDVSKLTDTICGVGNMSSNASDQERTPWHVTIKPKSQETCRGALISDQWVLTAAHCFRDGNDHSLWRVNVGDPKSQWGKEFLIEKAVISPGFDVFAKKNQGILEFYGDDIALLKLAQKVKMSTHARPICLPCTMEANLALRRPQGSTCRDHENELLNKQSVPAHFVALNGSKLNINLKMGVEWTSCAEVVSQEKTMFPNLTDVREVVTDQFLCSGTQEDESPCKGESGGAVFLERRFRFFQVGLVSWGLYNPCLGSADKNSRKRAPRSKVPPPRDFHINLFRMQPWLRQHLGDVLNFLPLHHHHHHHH

For assay [2], the target named is T2, human C2 F689A (human, UniProt P06681 21-752).
T2 sequence: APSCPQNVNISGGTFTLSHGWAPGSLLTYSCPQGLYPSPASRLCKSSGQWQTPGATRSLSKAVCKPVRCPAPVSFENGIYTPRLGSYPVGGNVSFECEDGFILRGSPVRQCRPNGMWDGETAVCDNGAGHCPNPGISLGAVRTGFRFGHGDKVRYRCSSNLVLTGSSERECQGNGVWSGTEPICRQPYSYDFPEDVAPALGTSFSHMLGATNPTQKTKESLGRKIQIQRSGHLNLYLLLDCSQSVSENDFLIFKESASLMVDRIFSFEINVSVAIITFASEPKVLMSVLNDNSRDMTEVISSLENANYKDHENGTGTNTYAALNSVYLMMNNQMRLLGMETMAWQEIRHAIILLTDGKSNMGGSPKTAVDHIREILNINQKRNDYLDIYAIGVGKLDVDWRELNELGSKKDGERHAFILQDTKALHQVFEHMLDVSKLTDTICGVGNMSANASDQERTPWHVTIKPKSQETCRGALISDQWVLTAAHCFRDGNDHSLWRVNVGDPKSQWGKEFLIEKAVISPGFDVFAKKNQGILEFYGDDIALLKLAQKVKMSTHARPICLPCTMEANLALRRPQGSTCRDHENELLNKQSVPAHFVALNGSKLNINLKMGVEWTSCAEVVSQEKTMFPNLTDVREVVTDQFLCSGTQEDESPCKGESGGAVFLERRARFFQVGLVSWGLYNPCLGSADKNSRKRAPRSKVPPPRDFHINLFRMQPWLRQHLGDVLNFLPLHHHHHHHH

For assay [3], the target named is T3, human C2 R434A (human, UniProt P06681 21-752).
T3 sequence: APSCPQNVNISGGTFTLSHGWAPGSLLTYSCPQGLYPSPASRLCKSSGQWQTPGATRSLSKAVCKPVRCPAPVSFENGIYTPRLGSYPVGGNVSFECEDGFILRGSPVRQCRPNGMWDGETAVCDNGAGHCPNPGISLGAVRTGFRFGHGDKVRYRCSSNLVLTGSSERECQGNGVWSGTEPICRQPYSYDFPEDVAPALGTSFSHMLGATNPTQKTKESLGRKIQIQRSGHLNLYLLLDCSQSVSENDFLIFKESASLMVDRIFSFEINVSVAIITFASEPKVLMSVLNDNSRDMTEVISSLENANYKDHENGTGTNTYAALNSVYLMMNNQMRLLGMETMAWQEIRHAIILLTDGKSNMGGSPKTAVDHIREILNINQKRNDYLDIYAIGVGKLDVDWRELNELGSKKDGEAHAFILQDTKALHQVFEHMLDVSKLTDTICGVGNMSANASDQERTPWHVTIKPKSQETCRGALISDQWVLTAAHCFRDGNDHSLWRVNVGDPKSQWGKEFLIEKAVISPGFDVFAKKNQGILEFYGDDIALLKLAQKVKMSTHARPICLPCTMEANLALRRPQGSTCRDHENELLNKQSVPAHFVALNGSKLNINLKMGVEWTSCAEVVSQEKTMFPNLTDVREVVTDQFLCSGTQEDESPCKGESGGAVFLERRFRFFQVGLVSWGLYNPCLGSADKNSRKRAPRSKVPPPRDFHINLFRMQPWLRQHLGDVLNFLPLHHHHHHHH

Assay [4] deals with T4, human C2 S473A (human, UniProt P06681 21-752).
T4 sequence: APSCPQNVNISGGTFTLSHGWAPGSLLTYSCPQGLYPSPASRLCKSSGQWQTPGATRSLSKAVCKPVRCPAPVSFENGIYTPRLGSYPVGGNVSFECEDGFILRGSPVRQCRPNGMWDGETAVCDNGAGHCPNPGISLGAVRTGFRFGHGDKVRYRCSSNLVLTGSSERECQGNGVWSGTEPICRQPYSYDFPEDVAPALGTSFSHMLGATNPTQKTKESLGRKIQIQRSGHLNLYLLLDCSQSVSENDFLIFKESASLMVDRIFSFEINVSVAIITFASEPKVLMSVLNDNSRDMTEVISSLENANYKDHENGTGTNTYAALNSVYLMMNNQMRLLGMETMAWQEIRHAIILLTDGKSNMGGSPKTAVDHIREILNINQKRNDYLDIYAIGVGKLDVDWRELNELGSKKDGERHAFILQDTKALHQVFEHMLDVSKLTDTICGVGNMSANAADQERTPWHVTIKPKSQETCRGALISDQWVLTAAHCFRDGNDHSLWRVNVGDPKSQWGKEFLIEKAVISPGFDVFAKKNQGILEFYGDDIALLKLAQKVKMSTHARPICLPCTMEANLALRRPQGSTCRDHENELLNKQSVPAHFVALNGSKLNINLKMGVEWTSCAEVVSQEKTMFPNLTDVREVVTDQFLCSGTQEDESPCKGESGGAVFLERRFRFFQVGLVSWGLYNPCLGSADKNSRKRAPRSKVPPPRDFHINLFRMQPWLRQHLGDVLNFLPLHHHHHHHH

B1: RF16-214 (antibody, V domains shown)
VH: EVQLLESGGGLVQPGGSLRLSCAASGFTFSWYQMMWVRQAPGKGLEWVSRIYPSGGGTAYADSVKGRFTISRDNSKNTLYLQMNSLRAEDTAVYYCARDAGYGDNWGQGTLVTVSS
VL: QSALTQPPSVSVSPGQTASITCSGDKLGEKYASWYQQKAGQSPVMVIYQDRKRPSGIPERFSGSNSGNTATLTISGTQAMDEADYYCQAWDTRAVVFGGGTKLTVLG
For the molecule B1, the Fold diff in assay [1] stood at 1 fold; in assay [2], 1 fold; in assay [3] it was 7 fold; in assay [4] it was 2 fold.
